In general, Kd refers to the free concentration of one partner at which half of the binding sites on the other are occupied at equilibrium, for simple one-to-one binding. By stoichiometry N is commonly meant the number of molecules, sites or subunits per partner or assembly.

This assay addresses SARS-CoV-2 main protease M^pro (untagged, native termini) (SARS-CoV-2) (UniProt P0DTD1). The assay is described as follows: ITC. For orientation: Isothermal titration calorimetry measures the heat released or taken up as one component is titrated into another.
Turning to “compound 4 (acetyl-Gly-Phe-His aldehyde, tripeptide derivative of AT1001)”, the Kd is 640 nM, the dH was -12.7 kcal/mol and the stoichiometry N is 1.04.
In the case of “compound 57 (BOC-Gly-Phe-His aldehyde) (peptide)”, the Kd was 442 nM, the dH is -14.5 kcal/mol and the stoichiometry N came to 0.991.
On to “compound 58 (octanoyl-Gly-Phe-His aldehyde) (peptide)”, for which the Kd was determined as 425 nM, the dH was -16.4 kcal/mol and the stoichiometry N turned out to be 0.966.
